Measurements published in patent US20050181450A1 (published 2005).

B1: IRBIT (IP3R-binding protein released with inositol 1,4,5-trisphosphate) in the high salt extract of mouse cerebellar crude microsome (other)
chain: SMPDAMPLPGVGEELKQAKEIEDAEKYSFMATVTKAPKKQIQFADDMQEFTKFPTKTGRRSLSRSISQSSTDSYSSAASYTDSSDDEVSPREKQQTNSKGSSNFCVKNIKQAEFGRREIEIAEQDMSALISLRKRAQGEKPLAGAKIVGCTHITAQTAVLIETLCALGAQCRWSACNIYSTQNEVAAALAEAGVAVFAWKGESEDDFWWCIDRCVNMDGWQANMILDDGGDLTHWVYKKYPNVFKKIRGIVEESVTGVHRLYQLSKAGKLCVPAMNVNDSVTKQKFDNLYCCRESILDGLKRTTDVMFGGKQVVVCGYGEVGKGCCAALKALGAIVYITEIDPICALQACMDGFRVVKLNEVIRQVDVVITCTGNKNVVTREHLDRMKNSCIVCNMGHSNTEIDVTSLRTPELTWERVRSQVDHVIWPDGKRVVLLAEGRLLNLSCSTVPTFVLSITATTQALALIELYNAPEGRYKQDVYLLPKKMDEYVASLHLPSFDAHLTELTDDQAKYLGLNKNGPFKPNYYRY
notes: Endogenous protein extracted with 500 mM NaCl from crude microsome of mouse cerebellum, not purified; sites not determined; also called IRBIT in the high salt extract
B2: GST-Ia (GST fusion of amino acids 1-225 of mouse IP3R1) (receptor)
chain: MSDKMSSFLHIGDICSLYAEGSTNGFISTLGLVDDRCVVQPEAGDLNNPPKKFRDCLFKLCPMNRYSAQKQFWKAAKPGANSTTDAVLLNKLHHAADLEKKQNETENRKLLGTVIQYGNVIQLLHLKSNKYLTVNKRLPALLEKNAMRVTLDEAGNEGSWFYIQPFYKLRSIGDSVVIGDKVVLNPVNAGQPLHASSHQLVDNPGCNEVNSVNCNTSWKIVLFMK
notes: Expressed in Escherichia coli; not shown: glutathione S-transferase (GST) tag of vector pGEX-KG
B3: GST-IV (GST fusion of amino acids 1553-1943 of mouse IP3R1) (receptor)
chain: DLDSQVNNLFLKSHNIVQKTALNWRLSARNAARRDSVLAASRDYRNIIERLQDIVSALEDRLRPLVQAELSVLVDVLHRPELLFPENTDARRKCESGGFICKLIKHTKQLLEENEEKLCIKVLQTLREMMTKDRGYGEKQISIDESENAELPQAPEAENSTEQELEPSPPLRQLEDHKRGEALRQILVNRYYGNIRPSGRRESLTSFGNGPLSPGGPSKPGGGGGGPGSSSTSRGEMSLAEVQCHLDKEGASNLVIDLIMNASSDRVFHESILLAIALLEGGNTTIQHSFFCRLTEDKKSEKFFKVFYDRMKVAQQEIKATVTVNTSDLGNKKKDDEVDRDAPSRKKAKEPTTQITEEVRDQLLEASAATRKAFTTFRREADPDDHYQSGE
notes: as for B2
B4: GST-Iab (GST fusion of amino acids 1-343 of mouse IP3R1) (receptor)
chain: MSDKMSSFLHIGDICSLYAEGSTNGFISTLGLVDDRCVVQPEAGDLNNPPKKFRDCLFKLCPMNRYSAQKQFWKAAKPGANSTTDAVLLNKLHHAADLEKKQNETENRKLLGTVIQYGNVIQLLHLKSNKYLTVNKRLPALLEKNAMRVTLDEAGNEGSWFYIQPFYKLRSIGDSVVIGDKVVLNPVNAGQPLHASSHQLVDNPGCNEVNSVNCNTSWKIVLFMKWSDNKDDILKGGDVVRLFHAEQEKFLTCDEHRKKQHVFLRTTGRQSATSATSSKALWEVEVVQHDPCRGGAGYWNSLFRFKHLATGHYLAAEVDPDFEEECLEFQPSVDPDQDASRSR
notes: as for B2
B5: K508A (site-directed mutant of GST-IbIIa, lysine 508 of IP3R1 substituted with alanine) (receptor)
chain: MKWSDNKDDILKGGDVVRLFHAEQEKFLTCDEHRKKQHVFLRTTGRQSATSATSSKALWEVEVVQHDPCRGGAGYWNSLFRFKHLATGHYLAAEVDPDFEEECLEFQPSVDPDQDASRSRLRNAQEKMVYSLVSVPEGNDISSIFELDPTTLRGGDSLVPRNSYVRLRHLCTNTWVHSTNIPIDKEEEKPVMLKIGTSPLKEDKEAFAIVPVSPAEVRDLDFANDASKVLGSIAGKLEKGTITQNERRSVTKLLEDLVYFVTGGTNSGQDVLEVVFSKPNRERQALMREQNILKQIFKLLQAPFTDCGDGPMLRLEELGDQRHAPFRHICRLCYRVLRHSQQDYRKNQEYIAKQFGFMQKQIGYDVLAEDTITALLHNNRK
notes: not shown: The GST carrier at the N end and its vector linker

Experiments:
[1] = target: T1, GST-IIIab (GST fusion of amino acids 916-1581 of mouse IP3R1) (mouse, UniProt P11881 916-1581); assay: GST pulldown from the high salt extract, Western blot with anti-IRBIT antibody
T1 construct: Expressed in Escherichia coli; not shown: glutathione S-transferase (GST) tag of vector pGEX-KG
T1 sequence (P11881 916-1581 N1264K): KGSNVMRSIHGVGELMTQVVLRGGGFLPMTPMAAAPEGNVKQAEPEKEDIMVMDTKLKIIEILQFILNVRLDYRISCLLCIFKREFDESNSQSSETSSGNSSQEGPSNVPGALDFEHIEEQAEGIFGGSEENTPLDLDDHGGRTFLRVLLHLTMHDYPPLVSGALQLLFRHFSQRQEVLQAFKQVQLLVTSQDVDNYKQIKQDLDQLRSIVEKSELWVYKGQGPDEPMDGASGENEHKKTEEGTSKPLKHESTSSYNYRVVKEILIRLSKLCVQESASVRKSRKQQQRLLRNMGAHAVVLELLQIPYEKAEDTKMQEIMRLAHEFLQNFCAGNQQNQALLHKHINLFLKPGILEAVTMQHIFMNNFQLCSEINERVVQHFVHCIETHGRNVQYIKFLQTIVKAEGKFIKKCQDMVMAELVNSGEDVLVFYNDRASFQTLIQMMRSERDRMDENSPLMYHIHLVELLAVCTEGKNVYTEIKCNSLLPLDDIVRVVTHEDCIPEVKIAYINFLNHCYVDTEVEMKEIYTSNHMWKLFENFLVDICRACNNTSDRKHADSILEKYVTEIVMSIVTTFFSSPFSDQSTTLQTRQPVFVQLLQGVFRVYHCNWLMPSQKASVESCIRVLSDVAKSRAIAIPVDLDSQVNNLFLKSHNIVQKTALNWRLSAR
From the text: (§1) FIG. 9A is the schematic representation of the structure of mouse IP₃R1 and the recombinant GST fusion proteins used in this study. The IP₃ binding core region is indicated with a gray box. Putative membrane-spanning regions are indicated with solid vertical bars. Roman numbers I to V indicate the domain structure of IP₃R1 determined by the limited trypsin digestion (51). Numbers above the bars represent corresponding amino acid residue numbers. […] The high salt extract of crude microsome obtained from mouse cerebella was incubated with GST fusion proteins shown in (A). Bound proteins were pulled down with glutathione-Sepharose, eluted with glutathione, and analyzed by Western blotting using anti-IRBIT antibody. […] Bound proteins were pulled down with glutathione-Sepharose, eluted with glutathione, and then analyzed by Western blotting using anti-IRBIT antibody (upper panel). GST fusion proteins pulled down with glutathione-Sepharose were stained with Coomassie Brilliant Blue (lower panel).
(§2) For the determination of the IRBIT binding region and the critical amino acid residue of IP₃R1, the diluted high salt extract was subjected to pulldown assay as described above with 100 pmol of GST, GST-EL, GST-Ia, GST-Iab, GST-IbIIa, GST-IIab, GST-IIbIIIa, GST-IIIab, GST-IV, GST-IV-Va, K508A or R441Q, and analyzed by Western blotting with anti-IRBIT antibody.

[2] = target: T2, GST-IIbIIIa (GST fusion of amino acids 600-1248 of mouse IP3R1) (mouse, UniProt P11881 600-1248); assay: as above
T2 construct: Expressed in Escherichia coli; not shown: glutathione S-transferase (GST) tag of vector pGEX-KG
From the text: as §1, §2

[3] = target: T3, GST-IV-Va (GST fusion of amino acids 1593-2217 of mouse IP3R1) (mouse, UniProt P11881 1593-2217); assay: as above
T3 construct: Expressed in Escherichia coli; not shown: glutathione S-transferase (GST) tag of vector pGEX-4T-1
T3 sequence (P11881 1593-2217): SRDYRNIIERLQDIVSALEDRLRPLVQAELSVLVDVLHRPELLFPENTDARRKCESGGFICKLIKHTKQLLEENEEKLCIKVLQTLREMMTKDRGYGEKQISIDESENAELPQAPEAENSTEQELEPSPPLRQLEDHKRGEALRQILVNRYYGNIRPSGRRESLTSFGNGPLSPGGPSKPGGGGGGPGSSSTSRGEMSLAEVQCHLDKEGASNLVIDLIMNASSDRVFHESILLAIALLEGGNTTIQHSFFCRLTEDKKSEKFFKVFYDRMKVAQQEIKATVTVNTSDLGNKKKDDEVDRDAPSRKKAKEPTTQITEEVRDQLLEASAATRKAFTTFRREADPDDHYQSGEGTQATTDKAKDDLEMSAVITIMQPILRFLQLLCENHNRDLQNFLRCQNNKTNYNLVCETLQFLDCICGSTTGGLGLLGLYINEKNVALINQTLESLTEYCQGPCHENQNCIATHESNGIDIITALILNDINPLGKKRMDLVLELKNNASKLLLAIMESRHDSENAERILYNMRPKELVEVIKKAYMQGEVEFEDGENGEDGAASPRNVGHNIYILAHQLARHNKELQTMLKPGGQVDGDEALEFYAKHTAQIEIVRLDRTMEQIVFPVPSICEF
From the text: as §1, §2

[4] = target: GST-EL (GST-IP3R1 (1-2217), GST fusion of the N-terminal 2217 amino acid residues of mouse IP3R1) (mouse, UniProt P11881 1-2217); assay: cell-based or functional assay
Chain of GST-EL (GST-IP3R1 (1-2217), GST fusion of the N-terminal 2217 amino acid residues of mouse IP3R1) (P11881 1-2217 N1264K): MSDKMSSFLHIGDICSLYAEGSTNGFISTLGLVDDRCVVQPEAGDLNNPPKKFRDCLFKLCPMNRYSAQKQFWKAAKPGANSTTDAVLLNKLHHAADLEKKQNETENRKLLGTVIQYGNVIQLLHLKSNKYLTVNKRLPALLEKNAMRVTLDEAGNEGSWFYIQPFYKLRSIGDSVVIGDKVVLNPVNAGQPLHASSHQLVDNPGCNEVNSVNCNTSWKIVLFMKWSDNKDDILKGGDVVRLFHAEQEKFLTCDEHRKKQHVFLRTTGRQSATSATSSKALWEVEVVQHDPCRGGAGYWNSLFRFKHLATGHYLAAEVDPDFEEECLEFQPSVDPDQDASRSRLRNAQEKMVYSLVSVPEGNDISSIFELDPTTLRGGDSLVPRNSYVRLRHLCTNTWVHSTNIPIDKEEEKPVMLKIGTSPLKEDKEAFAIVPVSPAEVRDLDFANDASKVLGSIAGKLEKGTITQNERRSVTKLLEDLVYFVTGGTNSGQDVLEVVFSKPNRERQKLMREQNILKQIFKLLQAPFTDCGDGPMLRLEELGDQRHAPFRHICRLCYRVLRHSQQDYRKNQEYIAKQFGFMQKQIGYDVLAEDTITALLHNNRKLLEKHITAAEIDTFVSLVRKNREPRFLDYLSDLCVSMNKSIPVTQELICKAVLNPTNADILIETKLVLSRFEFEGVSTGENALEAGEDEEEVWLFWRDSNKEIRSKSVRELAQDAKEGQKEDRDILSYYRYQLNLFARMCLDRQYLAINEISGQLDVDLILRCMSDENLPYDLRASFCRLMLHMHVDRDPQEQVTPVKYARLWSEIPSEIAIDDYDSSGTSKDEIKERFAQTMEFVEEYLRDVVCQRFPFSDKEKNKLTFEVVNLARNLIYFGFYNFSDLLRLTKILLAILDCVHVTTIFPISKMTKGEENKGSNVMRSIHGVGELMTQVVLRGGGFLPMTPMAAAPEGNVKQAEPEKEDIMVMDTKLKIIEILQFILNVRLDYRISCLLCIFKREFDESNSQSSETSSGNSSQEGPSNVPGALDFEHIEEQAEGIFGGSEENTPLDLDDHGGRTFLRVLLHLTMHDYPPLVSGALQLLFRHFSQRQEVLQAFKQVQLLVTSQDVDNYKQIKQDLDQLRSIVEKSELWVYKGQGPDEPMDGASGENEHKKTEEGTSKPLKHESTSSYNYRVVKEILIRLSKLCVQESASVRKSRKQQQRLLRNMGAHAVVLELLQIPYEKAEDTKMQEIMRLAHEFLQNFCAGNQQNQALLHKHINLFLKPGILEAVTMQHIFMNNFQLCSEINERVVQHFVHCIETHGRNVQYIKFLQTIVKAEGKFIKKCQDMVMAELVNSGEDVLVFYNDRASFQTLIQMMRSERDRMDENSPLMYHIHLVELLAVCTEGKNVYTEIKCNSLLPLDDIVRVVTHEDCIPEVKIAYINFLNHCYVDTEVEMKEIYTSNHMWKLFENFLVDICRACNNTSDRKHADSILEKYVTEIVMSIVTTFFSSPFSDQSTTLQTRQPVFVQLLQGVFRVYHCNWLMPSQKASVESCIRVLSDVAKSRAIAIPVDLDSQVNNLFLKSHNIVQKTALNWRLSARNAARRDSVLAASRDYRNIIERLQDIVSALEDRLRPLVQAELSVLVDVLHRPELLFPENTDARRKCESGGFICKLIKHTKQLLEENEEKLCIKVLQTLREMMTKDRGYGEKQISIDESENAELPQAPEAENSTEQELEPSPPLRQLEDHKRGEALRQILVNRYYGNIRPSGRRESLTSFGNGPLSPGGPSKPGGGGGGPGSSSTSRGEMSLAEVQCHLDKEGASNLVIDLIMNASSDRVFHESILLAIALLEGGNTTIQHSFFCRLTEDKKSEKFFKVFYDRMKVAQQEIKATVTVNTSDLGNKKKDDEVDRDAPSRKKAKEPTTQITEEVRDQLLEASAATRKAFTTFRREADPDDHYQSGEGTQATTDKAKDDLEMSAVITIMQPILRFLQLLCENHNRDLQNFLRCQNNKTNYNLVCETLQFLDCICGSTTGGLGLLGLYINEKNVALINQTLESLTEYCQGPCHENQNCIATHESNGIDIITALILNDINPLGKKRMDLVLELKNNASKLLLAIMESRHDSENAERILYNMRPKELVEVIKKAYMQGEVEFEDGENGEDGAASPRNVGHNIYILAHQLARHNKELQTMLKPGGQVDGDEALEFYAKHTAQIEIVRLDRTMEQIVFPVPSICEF

[5] = target: T4, GST-IIab (GST fusion of amino acids 341-923 of mouse IP3R1) (mouse, UniProt P11881 341-923); assay: GST pulldown from high salt extract, Western blot with anti-IRBIT antibody
T4 construct: Expressed in Escherichia coli; not shown: glutathione S-transferase (GST) tag of vector pGEX-KG
T4 sequence (P11881 341-923): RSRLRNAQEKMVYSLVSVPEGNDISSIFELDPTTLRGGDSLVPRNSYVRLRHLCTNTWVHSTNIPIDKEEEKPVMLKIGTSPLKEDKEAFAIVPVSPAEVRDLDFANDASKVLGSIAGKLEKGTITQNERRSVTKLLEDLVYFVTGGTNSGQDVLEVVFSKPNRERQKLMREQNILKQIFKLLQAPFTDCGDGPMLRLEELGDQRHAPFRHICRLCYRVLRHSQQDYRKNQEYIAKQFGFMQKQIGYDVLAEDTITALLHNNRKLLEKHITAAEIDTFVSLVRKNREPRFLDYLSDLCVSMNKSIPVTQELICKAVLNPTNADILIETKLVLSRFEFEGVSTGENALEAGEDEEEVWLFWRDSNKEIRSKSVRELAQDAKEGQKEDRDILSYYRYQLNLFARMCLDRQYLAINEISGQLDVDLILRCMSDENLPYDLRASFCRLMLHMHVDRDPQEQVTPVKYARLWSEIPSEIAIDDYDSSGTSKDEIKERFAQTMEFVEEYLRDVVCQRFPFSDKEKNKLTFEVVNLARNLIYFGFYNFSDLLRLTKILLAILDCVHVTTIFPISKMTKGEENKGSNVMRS
From the text: as §1, §2

[6] = target: B1; assay: GST pulldown from the high salt extract, Western blot with anti-IRBIT antibody
From the text: as §1, §2

[7] = target: B1; assay: GST pulldown from high salt extract, Western blot with anti-IRBIT antibody
From the text: as §1, §2

B1
binding result [1]: no binding (tested: 100 pmol GST fusion protein)
binding result [2]: no binding (tested: 100 pmol GST fusion protein)
binding result [3]: no binding (tested: 100 pmol GST fusion protein)
EC50 (IP3 concentration required for half (50%)-maximal dissociation of IRBIT from GST-EL) [4]: ~500 nM
binding result [5]: no binding (tested: 100 pmol of GST fusion protein)

B2
binding result [6]: no binding (tested: 100 pmol GST fusion protein)

B3
binding result [6]: no binding (tested: 100 pmol GST fusion protein)

B4
binding result [7]: no binding (tested: 100 pmol of GST fusion protein)

B5
binding result [7]: no binding (tested: 100 pmol of GST fusion protein)
